Experimental data published in patent US20160053277A1, “Compositions Having Dicamba Decarboxylase Activity and Methods of Use” (PIONEER HI-BRED INTERNATIONAL, INC., priority 2013, published 2016).

How the values were obtained:
[1] = Saturation mutagenesis of SEQ ID NO:109: dicamba decarboxylation activity of point mutants (carbon dioxide released); details: for Fold Activity: decarboxylation activity (carbon dioxide released) of point mutant compared with unmutated backbone protein, backbone SEQ ID NO: 109
[2] = 14C assay with IPTG-induced recombinant E. coli cells: 14CO2 captured from [14C]-carboxyl-labeled dicamba; details: for decarboxylation activity of dicamba: among the 108 sequences tested, recombinant E. coli cells; for Enzymatic Detection level: dicamba decarboxylation activity of the protein of the given SEQ ID NO, High / Low / No; for Dicamba Decarboxylase Activity: induced recombinant E. coli cells, [14C]-carboxyl-labeled dicamba, 14CO2 capture

B1: 48 (protein, listed as Amycolatopsis mediterranei)
chain: MASMKLYGLEEHFVTADVIEAWRRRDPGLAEPMMKWAVASDITPALLDVDGGRIAAMDDAGIDTTVLSLTTPGLQNLDAAEAVALQAPTNDLIAAAVRRHPGRFQGFATLATSAPAAAADELRRAVTELGLNGALVNANSRGRALDAPGFWDIYEAAEDLRAPVYLHPGVPVPAVTEAYYRGFGEPVNSMLATGAFGWHYDAGLTILRMIVAGVFDRFPGLQVILGHWGEVVLFYLDRVAAMDKLTALRRPIAEYFRSNIFITPGGISSHKYLRWSLETVGVERIMYASDYPFNTERAGSARRFLDTAPVDEAGRERIAYRNWEELIAGIRR
With B1 the “Fold Activity” value [1] was 1.5, the “decarboxylation activity of dicamba” value [2] was “showed decarboxylation activity of dicamba” and the “Enzymatic Detection level” value [2] was “High”. For the same molecule, the “Dicamba Decarboxylase Activity” value [2] was “High”.

B2: 43 (protein, listed as Rhizobium leguminosarum)
chain: MAQGKIALEEHFAIPETLQDSAGFVPGDYWTELSARLLDIQDKRLRLMDTHGIEKMILSLNAPAVQAIPDKAKAVEISRRANDFLAEQCVKNPNRFLGFAALPLQDPDAATQELQRCVTTMGFVGALVNGFSQEGDGTTPLYYDLPQYRPFWAEVEKLDVPFYLHPRNPLPQDSRIYAGHSWLMGPTWAFAQETAVHALRLMGSGLFDEHPALRIIVGHMGEGLPYMMWRIDNRNAWVKVEKSYPAKRPIADYFNENFYITTSGNFRTQSLIDAMLEIGADRILFSADWPFENVDHAANWFDSATISEADRLKIGRTNAVSLFKLDR
For B2, the “Fold Activity” value [1] was 1, the “decarboxylation activity of dicamba” value [2] was “showed decarboxylation activity of dicamba” and the “Enzymatic Detection level” value [2] was “High”. The “Dicamba Decarboxylase Activity” value [2] was “High”.

B3: 49 (protein, listed as Streptomyces sp.)
chain: MAKIIALEEHFSDPAVAKAGAARARALSPGFAASYSPASGLPYSPSPEVLENLAEKRLADMDAGGITMQVLSGLGAQTVPADVAPALVAGSNDKAAAAVRAHPDRFAAFAALPTATPEAAVAELDRSVNELGFVGTLIMGRTEGEFLDAPRFEPILARAAALKVPVFLHPGVPPREITDSNYAAGLPTGIGTRLQTAAWGWHQETAVHFLHLVHSGVLDRYPDLQFILGHWGEMIPFYLDRVDEALPQRATGLDRSFHEYFRENVYLAPSGMWSQAQLRFCLETVPLERIVFAVDYPFIGNEGAVPFLEKAELPQADKRKIAHENAERLLGL
In the case of B3, the “Fold Activity” value [1] is reported as 2, the “decarboxylation activity of dicamba” value [2] is reported as “showed decarboxylation activity of dicamba” and the “Enzymatic Detection level” value [2] is reported as “High”. The “Dicamba Decarboxylase Activity” value [2] was “High”.

B4: 51 (protein, listed as Mycobacterium gilvum)
chain: MARVIAIEEHYAHPGLQPAEALANLRKHPQLARIQDKLEDLGAGRLADMDAAGIDMQVLSHTVPGAEALPAAQAVDVVRQTNDDLAEVIAAHPDRFAGFAALPMRDPQAAATELQRAVGTLGFCGAMINGLIEGRFLDHPDFTPLLSTAADLGVPLYLHPSFPPPQVAQIYFGGLPPVLADLLATAGWGWHAETALHVLRLISTGVFDRLPELRVIVGHMGEMIPFALARIDTVLSPMTELRQPVAQYFQTNVWFTTSGYTTFPPLQCALSTVGIDRLIFSVDYPYTDNASARALLDTAPISPVDREKLAHATVEALLRV
In the case of B4, the “Fold Activity” value [1] is reported as 1.7, the “decarboxylation activity of dicamba” value [2] is reported as “showed decarboxylation activity of dicamba” and the “Enzymatic Detection level” value [2] is reported as “High”. The “Dicamba Decarboxylase Activity” value [2] was “High”.

B5: G52E: point mutant of SEQ ID NO: 109 (protein)
chain: MAQGKVALEEHFAIPETLQDSAGFVPGDYWKELQHRLLDIQDTRLKLMDAHEIETMILSLNAPAVQAIPDRRKAIEIARRANDVLAEECAKRPDRFLAFAALPLQDPDAATEELQRCVNDLGFVGALVNGFSQEGDGQTPLYYDLPQYRPFWGEVEKLDVPFYLHPRNPLPQDSRIYDGHPWLLGPTWAFAQETAVHALRLMASGLFDEHPRLNIILGHMGEGLPYMMWRIDHRVAWVKLPPRYPAKRRFMDYFNENFHITTSGNFRTQTLIDAILEIGADRILFSTDWPFENIDHASDWFNATSIAEADRVKIGRTNARRLFKLDGA
modifications: Dicamba decarboxylase variant clone: DC.4.032
For B5, the “Average Activity (Fold of SEQ ID NO: 109)” value ([1]; dicamba decarboxylation activity of point mutants of SEQ ID NO: 109, relative to unchanged template) was 3.1 Fold of SEQ ID NO: 109 and the “Average Activity (Fold of SEQ ID NO: 109)” value ([1]; point mutation in SEQ ID NO: 109) was 3.1 Fold of SEQ ID NO: 109.

B6: 50 (protein, listed as Streptomyces sp.)
chain: MARIVTLEEHWTDPAVTAAGMPNLLDHVPGYAAAFDPDTGMPYPRHPELLEDLGAARIADMDRHGITTQVLSLVNTFLPADVAPRLTAAANDAMAAAVEAFPGRFAAFATLPTAVPGAAADELRRCVGELGFVGTMIMGRTDGEFLDQPRFDPILRAASDLSVPVYLHPAPPPVAVSEASYAGGLSPAVSAAFRLAAWGWHQETAVHLLHLVLAGVLDRYPGLQFVLGHWGEFIPFYLDRLDESMPRRMTGLDRTFREYFRDNVFITPSGMFSQAQLRYCADTVGTDRIIHSVDFPMLGNEGAVSFLTDSHLSREDQEKIAHGNADALLGLG
In the case of B6, the “Fold Activity” value [1] is reported as 1.7, the “decarboxylation activity of dicamba” value [2] is reported as “showed decarboxylation activity of dicamba” and the “Enzymatic Detection level” value [2] is reported as “High”. The “Dicamba Decarboxylase Activity” value [2] was “High”.

B7: 47 (protein, listed as Serratia odorifera)
chain: MAKIICLEEHTLDKALVMASMPAALAQAPFLSDWGKTITDGNLPDRSRPQIEKNDLINVKGADIGRGRLDDMDEAGITMQVLSVGGFPHLISAAEGVDLNRAANDRLANAVNAHPDRFAAFATLPWAQPDAAEKELERAVKELGFKGALLNGRPSIHFLDHPDYDGLLARFNALGVPLYLHPGLPVRSVQQAYYSGFSDEVTARLSMFGWGWHHEAGIHLLRLILSGAFDKYPNLQVISGHWGEMLPFWLQRLDDSLPQAATGLRRTITQTFREQVYVTPSGMLTLPHFQFIYALLGAERILFSVDYPYQTLDGVKAFIQSLPVPEEAKEAIAFRNAERLFGLTS
For B7, the “Fold Activity” value [1] was 1.2, the “decarboxylation activity of dicamba” value [2] was “showed decarboxylation activity of dicamba” and the “Enzymatic Detection level” value [2] was “High”. For the same molecule, the “Dicamba Decarboxylase Activity” value [2] was “High”.

B8: 130 (protein)
chain: MGSSHHHHHHSSGRENLYFQGMKSITFEEHYVIEDIQKETMNAISADPKGVPMKVMLEGLEKKTGFTNADELSHHDERIQFMNNQDVQIQVLSYGNGSPSNLVGQKAIELCQKANDQLANYIAQYPNRFVGFATLPINEPEAAAREFERCINDLGFKGALIMGRAQDGFLDQDKYDIIFKTAENLDVPIYLHPAPVNSDIYQSYYKGNYPEVTAATFACFGYGWHIDVGIHAIHLVLSGIFDRYPKLNMIIGHWGEFIPFFLERMDEALFAEHLNHSVSYYFKNSFYITPSGMLTKPQFDLVKKEVGIDRILYAADYPYIEPEKLGVFLDELGLTDEEKEKISYTNGAKLLGLSSNN
modifications: Staphylococcus Aureus
For B8, the “Fold Activity” value [1] was 1.2.

B9: 46 (protein, listed as Rhodococcus opacus)
chain: MARIITLEEHYLDPAIAAASAPLARELSPDFAAAYDPASGLSYTPSAQVLQDLGQRRIADMDTHGISMQVLSCLTTQQVPADVAPDLVRAANDTAAAAVRAHPDRFAAFAALPTTAPDAAATELARCIDDLGFVGTMINGRTDGEFLDAPRFDPILATAAARNVPIYLHPAVPPRATSDSNYAGLAPLVTARLQTSAWGWHQETAVHFLHLVLSGVLDRYPNLQFILGHWGEMIPFYLDRLDEALPQAVTNLDRTISDYVRENVYITPSGMFNQAQLQYCVETLGVDRILYSVDYPFIGNDGAVSFLDEANLPDEAKHQIAHQNTEKLLGL
For B9, the “Fold Activity” value [1] was 1.1, the “decarboxylation activity of dicamba” value [2] was “showed decarboxylation activity of dicamba” and the “Enzymatic Detection level” value [2] was “High”. For the same molecule, the “Dicamba Decarboxylase Activity” value [2] was “High”.

B10: 132 (protein)
chain: SLLRFSAVSRHHRGASIDPMTFSEATTPDALTPDAHTPRLLTCDVLYTGMGGAQSPGGVVVVGETVAAAGHPDELRRQYPHAAEERAGAVIAPPPVNAHTHLDMSAYEFQALPYFQWIPEVVIRGRHLRGVAAAQAGADTLTRLGAGGVGDIVWAPEVMDALLAREDLSGTLYFEVLNPFPDKADEVFAAARTHLERWRRLERPGLRLGLSPHTPFTVSHRLMRLLSDYAAGEGLPLQIHVAEHPTELEMFRTGGGPLWDNRMPALYPHTLAEVIGREPGPDLTPVRYLDELGVLAARPTLVHMVNVTPDDIARVARAGCAVVTCPRSNHHLECGTFDWPAFAAAGVEVALGTDSVASGETLNVREEVTFARQLYPGLDPRVLVRAAVKGGQRVVGGRTPFLRRGETWQEGFRWELSRDL
modifications: Deinococcus Radiodurans
In the case of B10, the “Fold Activity” value [1] is reported as 1.6.

B11: 131 (protein)
chain: MSLTKIDAYAHILPAKYYQKMLSVEPNIPNMFPFIKIKTLMDLDERLTKWPDQNTKQVISLANISPEDFTDSKTSAELCQSANEELSNLVDQHPGKFAGAVAILPMNNIESACKVISSIKDDENLVGAQIFTRHLGKSIADKEFRPVLAQAAKLHVPLWMHPVFDARKPDNNLVFSWEYELSQAMLQLVQSDLFQDYPNLKILVHHAGAMVPFFSGRIDHILDEKHAQDFKKFYVDTAILGNTPALQLAIDYYGIDHVLFGTDAPFAVMPSGADQIITQAINDLTISDKDKQKIFHDNYYSLIKEGHHHHHH
modifications: Lactobacillus Acidophilus
For B11, the “Fold Activity” value [1] was 1.6.

B12: 44 (protein, listed as Mycobacterium avium)
chain: MARIITVEEHFQHPEVSARVAELTGPAVEGLAEFGNAFSLDPDSTARLGGNRLAHMDQVGIDVQVVSHGNGSPGTLQHPEAVELCRRVNNDLAAQIAENPDRFRGFATLPLYDPAAAAEELRRCVGDLGFVGALIAGSYDGLFLDDERFDPILTAAEAVDFPIYVHPGLPEAPVSQRYYAGSWPASVHMMFSGPAFGWHAEAGIHIVRLILSGALDRHPTLKLLSGHWGELAAFYLERLDETLGLLPTGLERAPSDYYRQQVWITPSGMYNQNQLNFMTAELGAQRIIYSEDFPYVVRDNVSTFLEQAGLSEADTHAIAHTNAEALLRI
For B12, the “Fold Activity” value [1] was 0.7, the “decarboxylation activity of dicamba” value [2] was “showed decarboxylation activity of dicamba” and the “Enzymatic Detection level” value [2] was “High”. The “Dicamba Decarboxylase Activity” value [2] was “High”.
